According to patent US9988424 (DUKE UNIVERSITY, dated 2018):
Changes are numbered by the printed parent chain. Read-outs that look alike come from different tables or passages of the source.

Legend:
[1] = molecular target: T1, AE.A244 V1/V2 Tags N156QN160Q (HIV-1); assay: ELISA; markers as in the legend printed on D00157
T1 chain: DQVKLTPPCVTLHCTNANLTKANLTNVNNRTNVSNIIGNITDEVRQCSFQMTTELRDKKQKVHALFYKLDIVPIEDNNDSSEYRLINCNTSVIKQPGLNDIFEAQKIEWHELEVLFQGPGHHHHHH

C.CAP206 gp140CF.12 = C.CAP206 gp140CF.12 (HIV-1); assay: ELISA
AE.A244 V1V2 Tags [2] = molecular target: AE.A244 V1V2 Tags (HIV-1); assay: ELISA
AE.A244 V1V2 Tags [3] = molecular target: AE.A244 V1V2 Tags (HIV-1); assay: ELISA; remark: listed apart in the source
[4] = molecular target: T2, gp70 B.CaseA2 V1/V2/V169K (HIV-1 V1V2 on murine leukemia virus gp70); assay: ELISA
T2 chain: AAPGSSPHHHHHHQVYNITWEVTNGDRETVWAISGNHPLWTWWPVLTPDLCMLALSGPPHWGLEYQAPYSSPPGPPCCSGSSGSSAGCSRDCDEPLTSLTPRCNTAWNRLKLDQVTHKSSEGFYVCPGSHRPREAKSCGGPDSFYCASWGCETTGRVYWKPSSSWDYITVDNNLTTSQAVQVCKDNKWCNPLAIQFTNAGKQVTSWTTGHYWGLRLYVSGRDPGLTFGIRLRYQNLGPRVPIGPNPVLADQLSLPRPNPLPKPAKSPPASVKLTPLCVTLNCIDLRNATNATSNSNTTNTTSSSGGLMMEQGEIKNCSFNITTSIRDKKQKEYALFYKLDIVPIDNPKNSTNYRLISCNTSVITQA

[5] = molecular target: T3, gp70 B.CaseA2 V1/V2/V169K/E172V/E173H (HIV-1 V1V2 on murine leukemia virus gp70); assay: ELISA
T3 construct: also called gp70 B.CaseA2 V1/V2 Mut3
T3 chain: T2 chain with E332V, Y333H

AE.A244 V1V2 Tags [6] = molecular target: AE.A244 V1V2 Tags (HIV-1); assay: ELISA; remark: listed apart in the source
gp70 C.1086 V1/V2 [7] = molecular target: T4, gp70 C.1086 V1/V2 (HIV-1 V1V2 on murine leukemia virus gp70); assay: ELISA
T4 construct: also called C.gp70 1086C V1V2; C.1086gp70V1V2
T4 chain: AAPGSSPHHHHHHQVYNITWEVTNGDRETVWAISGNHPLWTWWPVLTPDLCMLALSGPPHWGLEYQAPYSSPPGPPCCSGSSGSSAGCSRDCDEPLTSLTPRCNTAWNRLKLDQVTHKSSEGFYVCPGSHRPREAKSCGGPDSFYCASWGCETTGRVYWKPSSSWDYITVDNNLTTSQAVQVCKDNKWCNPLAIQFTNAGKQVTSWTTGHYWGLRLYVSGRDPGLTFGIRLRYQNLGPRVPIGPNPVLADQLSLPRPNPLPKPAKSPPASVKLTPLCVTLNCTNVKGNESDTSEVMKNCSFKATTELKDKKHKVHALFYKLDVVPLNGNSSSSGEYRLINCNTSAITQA

gp70 C.1086 V1/V2 [8] = molecular target: T4, gp70 C.1086 V1/V2; assay: ELISA
Env of AE.92TH023 virus = Env of AE.92TH023 virus (HIV-1); assay: cell-based or functional assay
Env of AE.CM244 virus = Env of AE.CM244 virus (HIV-1); assay: cell-based or functional assay
[9] = molecular target: Env of 92TH023 K169Q virus (HIV-1); assay: cell-based or functional assay
[10] = molecular target: Env of TH023.6.I181L virus (HIV-1); assay: cell-based or functional assay
Env of 703357.c02 virus = Env of 703357.c02 virus (HIV-1); assay: cell-based or functional assay
[11] = molecular target: Env of 703357.2.Q169K virus (HIV-1); assay: cell-based or functional assay
[12] = molecular target: Env of 703357.2.Q169KR170Q virus (HIV-1); assay: cell-based or functional assay
[13] = molecular target: Env of 703357.2.I181L virus (HIV-1); assay: cell-based or functional assay
[14] = molecular target: Env of 703357.2.Q169KI181L virus (HIV-1); assay: cell-based or functional assay
[15] = molecular target: Env of 703357.2.Q169KR170QI181L virus (HIV-1); assay: cell-based or functional assay
Env of 427299.c12 virus = Env of 427299.c12 virus (HIV-1); assay: cell-based or functional assay
[16] = molecular target: Env of 427299.c12.Q169K virus (HIV-1); assay: cell-based or functional assay
[17] = molecular target: Env of 427299.c12.KL.Q169K/I181L virus (HIV-1); assay: cell-based or functional assay
[18] = molecular target: Env of CM244NW.4.K169Q virus (HIV-1); assay: cell-based or functional assay
[19] = molecular target: Env of CM244NW.6.I181L virus (HIV-1); assay: cell-based or functional assay

B1: PG9 reverted unmutated ancestor antibody (antibody, V domains shown)
VH: QVQLVESGGGVVQPGRSLRLSCAASGFTFSSYGMHWVRQAPGKGLEWVAVISYDGSNKYYADSVKGRFTISRDNSKNTLYLQMNSLRAEDTAVYYCAREAGGPDYRNGYNYYDFWSGYYNYYYMDVWGKGTTVTVSS
VL: QSALTQPASVSGSPGQSITISCTGTSSDVGSYNLVSWYQQHPGKAPKLMIYEVSKRPSGVSNRFSGSKSGNTASLTISGLQAEDEADYYCCSLTSTRRWVFGGGTKLTVL
notes: also called PG9 RUA; PG9_RUA
binding result [1]: no binding (tested: 100 ug/ml)

B2: PG16 reverted unmutated ancestor antibody (antibody, V domains shown)
VH: B1 VH with D104I, Y105W, R106H, N107D, G108D, Y109V, N110K, W115N, S116D, N120Y
VL: B1 VL with S95D, T96R, R97S, R98H, W99R, V100I
notes: also called PG16 RUA; PG16_RUA
binding result [1]: no binding (tested: 100 ug/ml)

B3: PG16 (antibody, V domains shown)
VH: QEQLVESGGGVVQPGGSLRLSCLASGFTFHKYGMHWVRQAPGKGLEWVALISDDGMRKYHSDSMWGRVTISRDNSKNTLYLQFSSLKVEDTAMFFCAREAGGPIWHDDVKYYDFNDGYYNYHYMDVWGKGTTVTVSS
VL: QSALTQPASVSGSPGQTITISCNGTSSDVGGFDSVSWYQQSPGKAPKVMVFDVSHRPSGISNRFSGSKSGNTASLTISGLHIEDEGDYFCSSLTDRSHRIFGGGTKVTVL
notes: also called mAb PG16; bnAb PG16
EC50 (C.CAP206 gp140CF.12): 16 nM
EC50 (AE.A244 V1V2 Tags [2]): 3.7 nM
EC50 (AE.A244 V1V2 Tags [3]): 5.6 nM
binding result [4]: no binding
binding result [5]: no binding
EC50 (AE.A244 V1V2 Tags [6]): 3.7 nM

B4: CH58 reverted unmutated ancestor antibody (antibody, V domains shown)
VH: EVQLVQSGAEVKKPGESLKISCKGSGYSFTSYWIGWVRQMPGKGLEWMGIIYPGDSDTRYSPSFQGQVTISADKSISTAYLQWSSLKASDTAMYYCARLGGRYYYDSSGYYYFDYWGQGTLVTVSS
VL: NFMLTQPHSVSESPGKTVTISCTRSSGSIASNYVQWYQQRPGSSPTTVIYEDNQRPSGVPDRFSGSIDSSSNSASLTISGLKTEDEADYYCQSYDSSSWVFGGGTKLTVL
notes: also called CH58 RUA; CH58_RUA
EC50 (gp70 C.1086 V1/V2 [7]): > 66.7 nM
EC50 (gp70 C.1086 V1/V2 [8]): > 66.7 nM
ID50 assayed in TZM-bl cells, TH023.6 (Env of AE.92TH023 virus): > 50 µg/mL
ID50 assayed in TZM-bl cells, CM244.ec1 (Env of AE.CM244 virus): > 50 µg/mL
ID50 assayed in TZM-bl cells, TH023.6.K169Q [9]: > 50 µg/mL
ID50 assayed in TZM-bl cells, TH023.6.I181L [10]: > 50 µg/mL
ID50 assayed in TZM-bl cells, 703357.c02 (Env of 703357.c02 virus): > 50 µg/mL
ID50 assayed in TZM-bl cells, 703357.2.Q169K [11]: > 50 µg/mL
ID50 assayed in TZM-bl cells, 703357.2.Q169KR170Q [12]: > 50 µg/mL
ID50 assayed in TZM-bl cells, 703357.2.I181L [13]: > 50 µg/mL
ID50 assayed in TZM-bl cells, 703357.2.Q169KI181L [14]: > 50 µg/mL
ID50 assayed in TZM-bl cells, 703357.2.Q169KR170QI181L [15]: > 50 µg/mL
ID50 assayed in TZM-bl cells, 427299.c12 (Env of 427299.c12 virus): > 50 µg/mL
ID50 assayed in TZM-bl cells, 427299.c12.Q169K [16]: > 50 µg/mL
ID50 assayed in TZM-bl cells, 427299.c12.KL.Q169K/I181L [17]: > 50 µg/mL
ID50 assayed in TZM-bl cells, CM244NW.4.K169Q [18]: > 50 µg/mL
ID50 assayed in TZM-bl cells, CM244NW.6.I181L [19]: > 50 µg/mL
